Laboratory results as given in US20220251222A1, “IL-6Ralpha/IL-8R BISPECIFIC BINDING AGENTS FOR INHIBITING CANCER CELL MIGRATION” (The Johns Hopkins University, priority 2019, published 2022).

T1: human IL-6Rα ECD (Homo sapiens, UniProt P08887)
T1 construct: residues 89-303 of the mature protein; hexahistidine (C); made in house; host or cells: HEK 293F
T1 sequence (P08887 108-322): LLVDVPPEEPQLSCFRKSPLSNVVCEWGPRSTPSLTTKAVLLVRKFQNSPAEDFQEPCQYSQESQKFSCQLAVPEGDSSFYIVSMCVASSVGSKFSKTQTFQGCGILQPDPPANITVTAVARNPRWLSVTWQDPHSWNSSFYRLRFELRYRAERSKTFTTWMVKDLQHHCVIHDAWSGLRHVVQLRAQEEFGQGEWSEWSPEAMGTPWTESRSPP

T2: IL-8R (Homo sapiens, UniProt P25025)
T2 construct: expressed in transfected cells; host or cells: HEK 293T, lentiviral transduction (pCDH backbone)
T2 sequence (P25025 1-360): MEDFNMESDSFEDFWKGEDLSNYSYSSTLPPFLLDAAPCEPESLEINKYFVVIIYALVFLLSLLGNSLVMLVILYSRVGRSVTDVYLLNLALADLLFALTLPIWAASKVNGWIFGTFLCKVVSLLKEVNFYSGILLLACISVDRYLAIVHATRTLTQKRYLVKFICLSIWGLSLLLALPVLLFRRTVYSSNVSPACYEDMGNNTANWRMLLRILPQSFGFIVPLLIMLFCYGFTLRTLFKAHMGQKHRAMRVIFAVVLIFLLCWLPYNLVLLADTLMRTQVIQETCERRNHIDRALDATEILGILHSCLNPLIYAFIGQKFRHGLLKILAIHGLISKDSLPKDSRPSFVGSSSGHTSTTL

T3: IL-6/IL-6Rα interaction (Homo sapiens, UniProt P08887)
T3 construct: residues 89-303 of the mature protein; hexahistidine (C); made in house; host or cells: HEK 293F (IL-6Rα ECD)
T3 sequence (P08887 108-322): T1 sequence (P08887 108-322)

T4: IL-6 binding to IL-6Rα (Homo sapiens, UniProt P08887)
T4 construct: expressed in transfected cells; host or cells: HEK 293T, lentiviral transduction (IL-6Rα+/IL-8R−)
T4 sequence (P08887 20-468): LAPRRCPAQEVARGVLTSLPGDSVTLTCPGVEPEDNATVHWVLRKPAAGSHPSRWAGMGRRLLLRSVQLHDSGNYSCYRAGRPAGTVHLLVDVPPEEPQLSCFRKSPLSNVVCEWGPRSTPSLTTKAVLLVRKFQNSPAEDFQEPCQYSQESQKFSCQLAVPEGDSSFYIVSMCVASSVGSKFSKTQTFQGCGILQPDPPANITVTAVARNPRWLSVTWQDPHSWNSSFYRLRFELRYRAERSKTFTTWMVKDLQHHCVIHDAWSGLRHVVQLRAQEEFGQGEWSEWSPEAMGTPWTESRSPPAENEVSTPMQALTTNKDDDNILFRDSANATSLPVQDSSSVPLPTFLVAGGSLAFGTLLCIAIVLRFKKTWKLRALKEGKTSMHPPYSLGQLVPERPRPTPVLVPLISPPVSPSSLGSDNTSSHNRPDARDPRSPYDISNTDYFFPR

B1: 10H2: anti-IL-8RB monoclonal antibody, expressed as hIgG1 (antibody, V domains shown)
VH: EVQLVETGGRLVQPKGSLKLSCAVSGITFKTNAMNWVRQAPGKGLEWVARIRTKSYNYATYYADSVKDRFTISRDDSQSILYLQMNNLKTEDTAMYHCVREGRWGQGTLVTVSA
VL: QAVVTQESALTTSPGETVTLTCRSSTGAVTTSNYANWVQEKPDHLFTGLIGGTNNRPPGVPARFSGSLIGDKAALTITGAQIEDEAIYFCALWYSNHLVFGGGTKLTVL
B2: IL-6Rα ECD: recombinant human IL-6Rα extracellular domain, residues 89-303, biotinylated (protein)
chain: LLVDVPPEEPQLSCFRKSPLSNVVCEWGPRSTPSLTTKAVLLVRKFQNSPAEDFQEPCQYSQESQKFSCQLAVPEGDSSFYIVSMCVASSVGSKFSKTQTFQGCGILQPDPPANITVTAVARNPRWLSVTWQDPHSWNSSFYRLRFELRYRAERSKTFTTWMVKDLQHHCVIHDAWSGLRHVVQLRAQEEFGQGEWSEWSPEAMGTPWTESRSPPLNDIFEAQKIEWHEHHHHHH

How the values were obtained:
[1] = tested on: IL-6-mediated phosphorylation of STAT3; assay: IL-6 signaling inhibition assay (STAT3 phosphorylation) in HepG2 cells; type: cell-based, human; details: IL-6 10 nM, 20 min at 37° C.
Protocol: HepG2 cells were then fixed with 1.6% PFA, permeabilized with methanol and incubated with 1:50 dilution of Alexa Fluor 647 conjugated anti-pSTAT3 antibody (BD Biosciences, clone 4/P-STAT3) in PBSA for 2 h at room temperature. […] IC50 values were calculated using a first order logistic fitting models in GraphPad Prism data analysis software. Mean fluorescence intensity (MFI) of unstimulated cells was subtracted. Experiments were conducted in triplicate and performed twice times with similar results.

human IL-6Rα ECD = molecular target: T1, human IL-6Rα ECD; assay: Bio-layer interferometry (BLI) binding to immobilized IL-6Rα ECD; details: immobilized biotinylated IL-6Rα ECD, PBSA, 25° C., equilibrium titration
Protocol: Biotinylated human IL-6Rα ECD was immobilized to streptavidin-coated tips for analysis on an Octet® Red96 BLI instrument (ForteBio). Less than 5 signal units (nm) of receptor was immobilized to minimize mass transfer effects. Tips were exposed to serial dilutions of the anti-IL-6R antibody tocilizumab, the anti-IL-8R antibody 10H2, BS1, or BS2 in a 96-well plate for 300 s and dissociation was measured for 600 s. Surface regeneration for all interactions was conducted using 15 s exposure to 0.1 M glycine pH 3.0. Experiments were carried out in PBSA (phosphate-buffered saline [PBS] pH 7.3 plus 0.1% bovine serum albumin [BSA, Thermo]) at 25° C. Data was visualized and processed using the Octet® Data Analysis software version 7.1 (ForteBio). Equilibrium titration curve fitting and equilibrium dissociation constant (KD) value determination was implemented in GraphPad Prism software using a first-order logistic model. Experiments were reproduced two times with similar results.

IL-8R = molecular target: T2, IL-8R; assay: Cell surface binding on IL-6Rα−/IL-8R+ HEK 293T cells (flow cytometry); details: 2 hr at 4° C.
Excerpt: GeneJuice (Sigma Aldrich) was used as the transfection reagent.
Mean fluorescence intensity (MFI) of unstimulated cells was subtracted.

IL-6/IL-6Rα interaction = molecular target: T3, IL-6/IL-6Rα interaction; assay: Yeast cell surface competition of IL-6/IL-6Rα binding; details: IL-6-displaying yeast, biotinylated IL-6Rα ECD 300 nM
Protocol: Approximately 1×10^5 human IL-6-displaying yeast per well were plated in a 96-well plate and washed with PBSA. Yeast cells were incubated with saturating concentrations of biotinylated human IL-6Rα (300 nM) and serial dilutions of unlabeled competitor antibody (either the anti-IL-6R antibody tocilizumab, the anti-IL-8R antibody 10H2, BS1, or BS2) in PBSA for 2 hours at room temperature. Cells were then washed and stained with a 1:200 dilution of Alexa647-conjugated streptavidin (Thermo) in PBSA for 15 min at 4° C. Cells were washed again and assessed for human IL-6Rα binding on a CytoFLEX flow cytometer (Beckman Coulter). Background-subtracted fluorescent signal as a fraction of receptor subunit binding in the absence of competitor antibody was plotted. Curves were fitted to a first order logistic model and half maximal inhibitory concentrations (IC50s) were computed using GraphPad Prism. Assays were performed in triplicate and repeated two times with consistent results.

IL-6 binding to IL-6Rα = molecular target: T4, IL-6 binding to IL-6Rα; assay: IL-6 cell surface binding inhibition on IL-6Rα+/IL-8R− HEK 293T cells; details: IL-6Rα+/IL-8R− 293 T cells, biotinylated IL-6 100 nM
Protocol: Cells were then washed and incubated with 1:200 dilution of Alexa Fluor 647-conjugated streptavidin (Fisher Scientific, cat #: S21374) in PBSA for 15 min at 4° C. […] Curves were fitted to a first-order logistic model and IC50 values were calculated using GraphPad Prism data analysis software. Mean fluorescence intensity (MFI) of unstimulated cells was subtracted. […]

Human IL-6 = molecular target: T5, Human IL-6 (Homo sapiens, UniProt P05231); assay: Yeast cell surface affinity titration of IL-6Rα ECD on IL-6-displaying yeast; type: binding; details: 2 hours at room temperature, flow cytometry; read-out: KD of soluble IL-6Rα ECD on IL-6-displaying yeast
T5 construct: Human IL-6 (residues 3-185) was cloned into the pCT302 vector; made in house; host or cells: yeast (surface display)
Protocol: Human IL-6 (residues 3-185) was cloned into the pCT302 vector and presented on the surface of yeast, as described previously. (See Boder E T, Wittrup K D. Yeast surface display for screening combinatorial polypeptide libraries. Nat Biotechnol. 1997 June; 15(6):553-557. PMID: 9181578). Yeast displaying human IL-6 were incubated in PBSA containing serial dilutions of recombinant IL-6Rα ECD for 2 hours at room temperature. Cells were then washed and stained with a 1:200 dilution of Alexa647-conjugated streptavidin (Thermo) in PBSA for 15 min at 4° C. After a final wash, cells were analyzed for antibody binding using a CytoFLEX flow cytometer (Beckman Coulter).

T5 sequence (P05231 30-212): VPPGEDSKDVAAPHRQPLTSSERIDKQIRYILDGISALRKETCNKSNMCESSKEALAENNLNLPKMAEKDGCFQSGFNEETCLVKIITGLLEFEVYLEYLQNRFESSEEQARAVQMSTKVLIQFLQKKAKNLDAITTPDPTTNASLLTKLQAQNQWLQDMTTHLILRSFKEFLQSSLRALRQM

| Molecule | IC50, inhibition of STAT3 phosphorylation [1] | binding affinity (KD) to IL-6Rα via BLI (human IL-6Rα ECD) | KD, binding to IL-8R on cells (IL-8R) | IC50, inhibition of IL-6/IL-6Rα binding (IL-6/IL-6Rα interaction) | IC50, competition with IL-6 binding to IL-6Rα (IL-6 binding to IL-6Rα) | Kd (Human IL-6) [nM] |
| --- | --- | --- | --- | --- | --- | --- |
| B1 | did not effect inhibition | did not engage IL-6Rα | only recognized IL-8R^+ cells | did not compete | no inhibitory effects |  |
| B2 |  |  |  |  |  | 88 |
